The assay addresses His-tagged SARS-CoV-2 RBD protein (binding studies) (SARS-CoV-2, UniProt P0DTC2). Put plainly: BLI. The following applies: both partners purified.

The source of these data is article doi:10.1101/2020.08.02.233536 (bioRxiv, 2020).

B1:  (antibody, V domains shown)
VH: QVQLVQSGAEVKKPGASVKVSCKASGYTFTSYYMHWVRQAPGQGLEWMGIINSSGGSTSYAQKFQGRVTMTRDTSTSTVYMELSSLRSEDTAVYYCARPPRNYYDSSGYYQRAEYFQHWGQGTLVTVSS
VL: DIQLTQSPSSLSASVGDRVTITCQASQDISNYLNWYQQRPGKAPKLLIYDASNLETGVPSRFSGSGSGTDFTFTISSLQPEDIATYYCQQYDNPPLTFGGGTKLEIK
notes: also called somatic revertant VH R100bS
For the molecule B1, the binding result is given as “binds”.
